In patent US7319140 (SCHERING, dated 2008):
One block for each binder: values may come before it.

Legend:
[1] = target: T1, CD94/NKG2C receptor (disulfide-linked heterodimer) (human, UniProt Q13241 1-179; P26717 1-231); assay: summary of example XII
T1 construct: whole, on cells; Expressed in Ba/F3 transfectants; also called CD94/NKG2C heterodimer

KIR2DS2 = target: T2, KIR2DS2 (human, UniProt P43631 22-304); assay: co-immunoprecipitation from 125I-labelled Ba/F3 transfectants
T2 construct: whole, on cells; Expressed in Ba/F3 or Jurkat transfectants; also called NKAT5
T2 sequence (P43631 22-304): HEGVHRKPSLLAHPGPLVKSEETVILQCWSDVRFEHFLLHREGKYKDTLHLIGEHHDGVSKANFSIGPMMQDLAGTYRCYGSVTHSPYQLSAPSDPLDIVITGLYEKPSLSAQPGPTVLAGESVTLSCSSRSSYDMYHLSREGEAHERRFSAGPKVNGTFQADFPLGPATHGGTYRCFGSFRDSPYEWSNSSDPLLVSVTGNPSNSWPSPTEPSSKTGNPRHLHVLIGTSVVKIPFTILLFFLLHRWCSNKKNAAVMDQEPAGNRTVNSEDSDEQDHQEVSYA
Source text: Unlike CD94/NKG2C, KIR2DS2 molecules are expressed on the cell surface in the absence of DAP12, although they are unable to induce cellular activation (Bléry, et al. (1997) *J. Biol. Chem.* 272:8989-8996; Lanier, et al. (1998) *Nature* 391:703-707). KIR2DS2+ Ba/F3 cells were infected with retroviruses encoding either wild-type FLAG-DAP12 or the D-A transmembrane FLAG-DAP12 mutant receptor. Both KIR2DS2 and the mutant DAP12 protein were expressed on the cell surface. […] Like NKG2A and NKG2C, the KIR2DS2 protein has a counterpart, KIR2DL2, that lacks a charged amino acid in the transmembrane and contains an ITIM in its cytoplasmic domain. It has been previously reported that KIR2DL2 is unable to associate with DAP12 (Lanier, et al. (1998) *Nature* 391:703-707). Collectively, these findings indicate that the association of DAP12 with either KIR2DS2 or CD94/NKG2C complexes likely results from interactions involving the transmembrane domains of these proteins.

Ly49D = target: T3, Ly49D (mouse, UniProt Q60651 1-263); assay: co-immunoprecipitation from transfected Ba/F3 cells
T3 construct: whole, on cells; Expressed in Ba/F3 transfectants; also called mouse Ly49D
T3 sequence (looked up): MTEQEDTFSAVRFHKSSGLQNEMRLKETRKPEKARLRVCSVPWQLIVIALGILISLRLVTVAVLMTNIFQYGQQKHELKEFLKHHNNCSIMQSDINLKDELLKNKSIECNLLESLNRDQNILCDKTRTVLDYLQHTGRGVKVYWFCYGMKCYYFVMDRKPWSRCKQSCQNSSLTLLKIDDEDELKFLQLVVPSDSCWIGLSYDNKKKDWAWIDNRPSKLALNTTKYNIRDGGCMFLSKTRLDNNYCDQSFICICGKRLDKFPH
Source text: (§1) Transcripts of Ly49D and Ly49H are present in IL-2 activated NK cells (20). Ly49D is expressed on ~50% of NK cells (Mason, et al. (1996) *J. Exp. Med.* 184:2119), and is associated with a tyrosine phosphoprotein of 16 kD (Mason, et al. (1998) *J. Immunol.* 160:4148-4152). Murine NK cells, like human NK cells, transcribe mRNA for DAP12, a molecule which associates with the activating KIR2DS and mediates cellular activation (Lanier, et al. (1998) *Nature* 391:703). To examine if Ly49D or Ly49H associated with DAP12, Ba/F3 cells were stably transfected with an epitope-tagged mouse DAP12 (DAP12-FLAG). […] Ba/F3 or the Ba/F3-DAP12 transfectants were then infected with retroviruses encoding either Ly49D, a myc epitope tagged Ly49H (Ly49H-myc), or as a control Ly49A. Neither Ly49D nor Ly49H-myc was expressed at appreciable levels on the cell surface when transfected into Ba/F3 cells.
(§2) To confirm that Ly49D and Ly49H non-covalently associate with DAP12 at the cell surface, Ly49D/DAP12-FLAG or Ly49H-myc/DAP12-FLAG Ba/F3 transfectants were surface iodinated, lysed with digitonin, and immunoprecipitates were analyzed by SDS-PAGE.

[2] = target: T4, myc epitope tagged Ly49H (Ly49H-myc) (mouse, UniProt Q60682 1-266); assay: as above
T4 construct: whole, on cells; Expressed in Ba/F3 transfectants; also called mouse Ly49H
T4 sequence (looked up): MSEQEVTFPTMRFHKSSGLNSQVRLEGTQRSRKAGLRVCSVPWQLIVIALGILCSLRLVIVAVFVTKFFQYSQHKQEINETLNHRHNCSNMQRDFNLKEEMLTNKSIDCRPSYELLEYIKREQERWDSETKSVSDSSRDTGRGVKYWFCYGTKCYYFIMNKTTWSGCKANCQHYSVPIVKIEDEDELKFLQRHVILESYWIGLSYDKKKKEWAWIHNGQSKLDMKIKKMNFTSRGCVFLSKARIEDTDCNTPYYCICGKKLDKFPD
Source text: as §1, §2

T1 sequence (Q13241 whole entry, chain 1 of 2): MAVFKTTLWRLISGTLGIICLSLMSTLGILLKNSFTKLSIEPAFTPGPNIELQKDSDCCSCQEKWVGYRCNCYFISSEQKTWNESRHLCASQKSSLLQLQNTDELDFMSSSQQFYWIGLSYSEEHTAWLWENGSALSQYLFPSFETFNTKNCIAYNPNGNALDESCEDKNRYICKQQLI
T1 sequence (P26717 whole entry, chain 2 of 2): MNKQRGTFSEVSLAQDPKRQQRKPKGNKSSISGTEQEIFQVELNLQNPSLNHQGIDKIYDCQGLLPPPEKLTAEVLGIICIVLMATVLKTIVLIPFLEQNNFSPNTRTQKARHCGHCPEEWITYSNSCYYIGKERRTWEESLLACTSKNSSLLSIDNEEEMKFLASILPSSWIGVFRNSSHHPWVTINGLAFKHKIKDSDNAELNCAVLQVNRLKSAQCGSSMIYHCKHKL

- binding result [1]: binds
B1: DAP12-FLAG (human DAP12 with a FLAG epitope tag at the N terminus) (receptor, not shown: small tags and cut ends)
chain: QAQSDCSCSTVSPGVLAGIVMGDLVLTVLIALAVYFLGRLVPRGRGAAEAATRKQRITETESPYQELQGQRSDVYSDLNTQRPYYK
notes: Made as CD8 leader, FLAG, then DAP12 without its own leader; Runs as a disulfide-bonded homodimer on the cell surface; also called FLAG-DAP12

- binding result (KIR2DS2): no binding
B2: D-A transmembrane FLAG-DAP12 mutant receptor (receptor, not shown: small tags and cut ends)
chain: QAQSDCSCSTVSPGVLAGIVMGALVLTVLIALAVYFLGRLVPRGRGAAEAATRKQRITETESPYQELQGQRSDVYSDLNTQRPYYK
notes: also called mutant DAP12 protein

- binding result (Ly49D): binds
- binding result [2]: binds
B3: epitope-tagged mouse DAP12 (DAP12-FLAG) (receptor, not shown: small tags and cut ends)
chain: AQSDTFPRCDCSSVSPGVLAGIVLGDLVLTLLIALAVYSLGRLVSRGQGTAEGTRKQHIAETESPYQELQGQRPEVYSDLNTQRQYYR
notes: Limits of the construct are not described; also called mouse DAP12-FLAG; FLAG-tagged form of mouse DAP12
